Test results published in patent publication US20260242440A1, “NOVEL MEANS TO MODULATE NMDA RECEPTOR-MEDIATED TOXICITY” (FUNDAMENTAL PHARMA GMBH, priority 2018, published 2026).
“Also recorded” adds a separate entry of the source.

Tested on: primary mouse hippocampal neurons
Test: NMDA induced cell death (excitotoxicity) in cultured primary neurons
Type: cell-based
Details: polypeptide expressed via rAAV infection on DIV3; NMDA 20 μM for 10 min; cell death assessed 24 h later
Description: Primary mouse hippocampal and cortical neurons were prepared and maintained as known. Briefly, hippocampi or cerebral cortex from P0 C57Bl/6NCrl mice were dissociated and plated at a density of 1.2*105/cm^2 in Growth Medium (GM), consisting of Neurobasal A medium (Gibco™, 10888022), 2% serum free B27™ Supplement (Gibco™, 17504044), 1% rat serum (Biowest, S2150), 0.5 mM L-Glutamine (Sigma, G7513) and 0.5% P-S. Cytosine β-D-arabinofuranoside (AraC; Sigma, C1768; 2.8 μM) was added on DIV3 to prevent the proliferation of glial cells. From DIV8, half of the medium was replaced by GM without Rat serum every 48 h until being used for experiments. 24 h before experiments, GM was replaced with transfection medium (10 mM HEPES, pH 7.4, 114 mM NaCl, 26.1 mM NaHCO3, 5.3 mM KCl, 1 mM MgCl2, 2 mM CaCl2, 30 mM glucose, 1 mM glycine, 0.5 mM C3H3NaO3, and 0.001% phenol red and 10% of phosphate-free Eagle's minimum essential medium, supplemented with 7.5 µg/ml insulin, 7.5 µg/ml transferrin and 7.5 ng/ml sodium selenite (ITS Liquid Media Supplement, Sigma-Aldrich Cat #I3146)). Primary hippocampal neurons were used in live cell imaging, cell death experiments, while cortical neurons were used for mRNA and protein extraction analysis.
All viral particles were produced and purified as known in the art. All TRPM4 derived peptides (comprising SEQ ID NO:5, or any of SEQ ID NO:46 to SEQ ID NO:56) were cloned into rAAV backbone by PCR. shRNA against mouse TRPM4 were designed by BLOCK-iT™ RNAi Designer from Thermofisher to target: […] (SEQ ID NO:44, shTRPM4-1) and […] (SEQ ID NO:45, shTRPM4-2). Scramble shRNA (shSCR) has been tested and proven to have no known targets in mice. GPI anchor ([…], e.g. used in SEQ ID NO:53) sequences were synthesized by Eurofins Genomics (Ebersberg, Germany). All primers were synthesized and all plasmids were confirmed by sequencing by Eurofins Genomics.
In order to investigate the role of TRPM4 in NMDA receptor mediated excitotoxicity, the inventors used RNA interference strategies to knock down TRPM4. Cultured primary mouse hippocampus neurons were infected on day 3 in vitro (DIV3) with recombinant adeno-associated viruses (rAAVs) providing for expression of a scramble control (shSCR), shTRPM4-1 (SEQ ID NO:44) or shTRPM4-2 (SEQ ID NO:45). On DIV15-16, neurons were challenged with N-methyl-D-aspartate (NMDA, 20 μM) for 10 min. After NMDA wash out, neurons were kept in the culture medium for another 24 h before analysis. […] Evidently, TRPM4 is thus involved in the process of NMDA receptor mediated excitotoxicity.
In a next step, the inventors tried to identify regions in the mouse TRPM4 protein potentially involved in NMDA receptor mediated excitotoxicity. For this purpose, polypeptide fragments of mouse TRPM4 protein were generated and their impact on NMDA induced excitotoxicity analysed. To do so, primary neuron cultures were infected with respective rAAVs on DIV3, challenged with NMDA (20 μM) for 10 min on DIV17 and cell death assessed 24 hours later.
The sequence of SEQ ID NO:5 in TRPM4 is located in vivo just beneath the plasma membrane. […] To test this hypothesis, the inventors created a fusion protein comprising SEQ ID NO:5 and a GPI anchor, SEQ ID NO:57. The sequence of the fusion is given in SEQ ID NO:53. Neurons infected with rAAV and expressing SEQ ID NO:47 (control) or SEQ ID NO:53 were exposed to NMDA (20 μM) for 10 min on DIV15-16, with cell death assessed after 24 h.
In a next step, the inventors created a mutant of SEQ ID NO:5, in which two adjacent phenylalanine residues where substituted by tyrosine residues (SEQ ID NO: 54). […] TRPM5 is a protein related to but nonetheless distinct to TRPM4. The region in TRPM5 corresponding to SEQ ID NO:5, SEQ ID NO:55, shares only about 60% sequence identity with SEQ ID NO:5. Neurons were infected on DIV3 with rAAVs expressing SEQ ID NO: 5, SEQ ID NO: 54 or SEQ ID NO:55 and exposed to NMDA (20 μM) for 10 min on DIV17, with cell death assessed 24 h later. […]

Molecule	protection against NMDA induced cell death (neuroprotective effect)
SEQ ID NO:46: fragment of mouse TRPM4, amino acid residues 1-346	only SEQ ID NO:47 is neuroprotective
SEQ ID NO:53: corresponds to SEQ ID NO:47 but comprises additionally a membrane-anchor (GPI) (protein, GPI membrane anchor; Fusion protein of SEQ ID NO: and SEQ ID NO:57) LQAQVERIMTRKELLTVYSSEDGSEEFETIVLRALVKACGSSEASAYLDELRLAVAWNRVDIAQSELFRGDIQWRSFHLEASLMDALLNDRPEFVRLLISHGLSLGHFLTPVRLAQLYSAVSPNSLIRNLLDQASHASSSKSPPVNGTVELRPPNVGQVLRTLLGETCAPRYPARNTRDSYLGQDHRENDSLLMDWANKQPSTDASFEQAPWSDLLIWALLLNRAQMAIYFWEKGSNSVASALGACLLLRVMARLESEAEEAARRKDLAATFESMSVDLFGECYHNSEERAARLLLRRCPLWGEATCLQLAMQADARAFFAQDGVQSLLTQKWWGEMDSTTPLENGGTSLSEKTVLLLVTPFLAAAWSLHP	can increase the ability to protect neurons from excitotoxicity; also recorded: increased the protective effects
SEQ ID NO:52: fragment of mouse TRPM4, amino acid residues 536-648 (protein, listed as Mus musculus) SYLGQDHRENDSLLMDWANKQPSTDASFEQAPWSDLLIWALLLNRAQMAIYFWEKGSNSVASALGACLLLRVMARLESEAEEAARRKDLAATFESMSVDLFGECYHNSEERAARLLLRRCPLWG	only SEQ ID NO:5 is neuroprotective
SEQ ID NO:49: fragment of mouse TRPM4, amino acid residues 1037-1213 (protein, listed as Mus musculus) AMFSYTFSKVHGNSDLYWKAQRYSLIREFHSRPALAPPLIIISHVRLLIKWLRRCRRCRRANLPASPVFEHFRVCLSKEAERKLLTWESVHKENFLLAQARDKRDSDSERLKRTSQKVDTALKQLGQIREYDRRLRGLEREVQHCSRVLTWMAEALSHSALLPPGAPPPPSPTGSKD	only SEQ ID NO:47 is neuroprotective
SEQ ID NO:48: fragment of mouse TRPM4, amino acid residues 690-1036 (protein, listed as Mus musculus) IWALLLAFFCPPLIYTNLIVFRKSEEEPTQKDLDFDMDSSINGAGPPGTVEPSAKVALERRQRRRPGRALCCGKFSKRWSDFWGAPVTAFLGNVVSYLLFLLLFAHVLLVDFQPTKPSVSELLLYFWAFTLLCEELRQGLGGGWGSLASGGRGPDRAPLRHRLHLYLSDTWNQCDLLALTCFLLGVGCRLTPGLFDLGRTVLCLDFMIFTLRLLHIFTVNKQLGPKIVIVSKMMKDVFFFLFFLCVWLVAYGVATEGILRPQDRSLPSILRRVFYRPYLQIFGQIPQEEMDVALMIPGNCSMERGSWAHPEGPVAGSCVSQYANWLVVLLLIVFLLVANILLLNLLI	only SEQ ID NO:47 is neuroprotective
SEQ ID NO:50: fragment of mouse TRPM4, amino acid residues 347-467 (protein, listed as Mus musculus) LQAQVERIMTRKELLTVYSSEDGSEEFETIVLRALVKACGSSEASAYLDELRLAVAWNRVDIAQSELFRGDIQWRSFHLEASLMDALLNDRPEFVRLLISHGLSLGHFLTPVRLAQLYSAVS	only SEQ ID NO:5 is neuroprotective
SEQ ID NO:51: fragment of mouse TRPM4, amino acid residues 468-548 (protein, listed as Mus musculus) SLGHFLTPVRLAQLYSAVSPNSLIRNLLDQASHASSSKSPPVNGTVELRPPNVGQVLRTLLGETCAPRYPARNTRDSYLGQDHRENDSLLMDWANKQPST	only SEQ ID NO:5 is neuroprotective
SEQ ID NO:47: fragment of mouse TRPM4, amino acid residues 347-689 (protein, listed as Mus musculus) LQAQVERIMTRKELLTVYSSEDGSEEFETIVLRALVKACGSSEASAYLDELRLAVAWNRVDIAQSELFRGDIQWRSFHLEASLMDALLNDRPEFVRLLISHGLSLGHFLTPVRLAQLYSAVSPNSLIRNLLDQASHASSSKSPPVNGTVELRPPNVGQVLRTLLGETCAPRYPARNTRDSYLGQDHRENDSLLMDWANKQPSTDASFEQAPWSDLLIWALLLNRAQMAIYFWEKGSNSVASALGACLLLRVMARLESEAEEAARRKDLAATFESMSVDLFGECYHNSEERAARLLLRRCPLWGEATCLQLAMQADARAFFAQDGVQSLLTQKWWGEMDSTTP	contains a neuroprotective element

Same assay, conditions: rAAV shRNA infection DIV3; NMDA 20 μM 10 min on DIV15-16; analysis 24 h later

Molecule	protection from NMDA induced excitotoxicity by knockdown of TRPM4
shTRPM4-2: shRNA against mouse TRPM4 targeting gcatccagagagggttcattc, expressed from rAAV (guide GCAUCCAGAGAGGGUUCAUUC; listed as Mus musculus)	significantly protected neurons
shTRPM4-1: shRNA against mouse TRPM4 targeting ggacatcgcccaaagtgaact, expressed from rAAV (guide GGACAUCGCCCAAAGUGAACU; listed as Mus musculus)	significantly protected neurons
